According to publication PMC4312760:

Assays:
[1] = biological target: Boxer virus (BV, GI.8) VP1 P domain, Q227-L526 (P dimer) (Boxer virus (human norovirus GI.8)); test: crystal structure; P protein at 10 mg/mL (native) or 14 mg/mL with Le^b or Le^y tetrasaccharide, hanging drop, 0.1 mol/L LiCl, 18% PEG 3350, 10% MPD, 16°C; space group P6_(1), two protomers in the asymmetric unit
[2] = biological target: Boxer virus (BV, GI.8) P domain, wild type, as P particle (Boxer virus (human norovirus GI.8)); test: SEC; gel filtration on Superdex 200 followed by SDS-PAGE; P particles form a peak at 830 kDa

Boxer virus (BV, GI.8) VP1 P domain, Q227-L526 (P dimer) (domain or fragment)
stoichiometry N [1]: 2

Boxer virus (BV, GI.8) P domain, wild type, as P particle (domain or fragment)
efficiency of P particle formation [2]: 80%
